According to PMC5309953, “IRAV (FLJ11286), an Interferon-Stimulated Gene with Antiviral Activity against Dengue Virus, Interacts with MOV10”:

Target: IRAV (FLJ11286) (UniProt Q9NUL5 1-269)
Experiment: fluorescence polarization; FP: oligos in 100 mM KCl, 20 mM HEPES pH 7.4 (heated to 85 C, slow cooled); protein purified in 200 mM NaCl, 20 mM HEPES pH 7.4; assay temperature not stated
Details: protein: recombinant; tags: N-terminal His-MBP; label: 3'-FAM; single strand

Sequence of IRAV (FLJ11286) (Q9NUL5 1-269): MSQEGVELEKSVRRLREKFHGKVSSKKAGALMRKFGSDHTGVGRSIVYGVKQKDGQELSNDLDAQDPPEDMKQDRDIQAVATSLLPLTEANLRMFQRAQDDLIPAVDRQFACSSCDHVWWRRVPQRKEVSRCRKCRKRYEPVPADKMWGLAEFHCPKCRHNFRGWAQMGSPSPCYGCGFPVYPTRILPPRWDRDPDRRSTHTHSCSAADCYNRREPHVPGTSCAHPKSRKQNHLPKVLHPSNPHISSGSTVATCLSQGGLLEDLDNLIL

Binder | binding result
AGUUGUUAGUCUACGUGGAC (ssRNA) [ssRNA 20-mer] | binds
AGTTGTTAGTCTACGTGGAC (ssDNA) [ssDNA 20-mer] | binds
